Several values for one entry are separate records, joined by “and”; a condition that tells them apart may be missing. Equal entries are not always repeated.
T1: human IL-12 (human, UniProt P29459 23-219; P29460 23-328)
T1 sequence (looked up) 1: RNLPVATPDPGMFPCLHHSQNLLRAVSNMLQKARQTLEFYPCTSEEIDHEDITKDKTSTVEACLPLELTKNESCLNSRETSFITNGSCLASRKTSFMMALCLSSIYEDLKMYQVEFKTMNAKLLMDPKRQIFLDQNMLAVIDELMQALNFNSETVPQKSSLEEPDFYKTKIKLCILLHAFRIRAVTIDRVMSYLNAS
T1 sequence (looked up) 2: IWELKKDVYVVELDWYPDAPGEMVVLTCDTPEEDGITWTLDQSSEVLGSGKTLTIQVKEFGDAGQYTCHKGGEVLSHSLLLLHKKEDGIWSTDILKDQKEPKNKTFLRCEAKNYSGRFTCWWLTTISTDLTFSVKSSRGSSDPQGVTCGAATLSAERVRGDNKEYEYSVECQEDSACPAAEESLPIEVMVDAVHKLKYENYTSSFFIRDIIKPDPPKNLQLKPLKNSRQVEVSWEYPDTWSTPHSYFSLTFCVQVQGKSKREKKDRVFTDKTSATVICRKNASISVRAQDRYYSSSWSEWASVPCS

T2: natural human IL-23 from activated THP-1 cells (human, UniProt P29460 23-328)
T2 sequence 1: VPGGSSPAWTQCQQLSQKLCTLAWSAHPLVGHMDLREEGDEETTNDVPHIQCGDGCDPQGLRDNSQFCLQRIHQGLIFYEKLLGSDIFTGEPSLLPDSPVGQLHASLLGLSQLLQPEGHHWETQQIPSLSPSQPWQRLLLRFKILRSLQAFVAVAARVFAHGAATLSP
T2 sequence 2: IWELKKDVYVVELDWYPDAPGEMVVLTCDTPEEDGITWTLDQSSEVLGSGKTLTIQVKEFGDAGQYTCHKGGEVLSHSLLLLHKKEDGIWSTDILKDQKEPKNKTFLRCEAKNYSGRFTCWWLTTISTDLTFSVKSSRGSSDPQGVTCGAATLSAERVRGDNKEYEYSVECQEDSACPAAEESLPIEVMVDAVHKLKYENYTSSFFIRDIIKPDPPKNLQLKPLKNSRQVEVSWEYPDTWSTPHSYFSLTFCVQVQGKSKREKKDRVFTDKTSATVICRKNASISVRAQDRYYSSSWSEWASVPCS

T3: recombinant human IL-23 (human, UniProt P29460 23-328)
T3 sequence 1: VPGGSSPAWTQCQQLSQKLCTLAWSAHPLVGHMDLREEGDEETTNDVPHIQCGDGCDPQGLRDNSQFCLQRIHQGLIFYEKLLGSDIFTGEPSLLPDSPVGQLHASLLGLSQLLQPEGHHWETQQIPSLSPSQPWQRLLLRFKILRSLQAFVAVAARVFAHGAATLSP
T3 sequence 2: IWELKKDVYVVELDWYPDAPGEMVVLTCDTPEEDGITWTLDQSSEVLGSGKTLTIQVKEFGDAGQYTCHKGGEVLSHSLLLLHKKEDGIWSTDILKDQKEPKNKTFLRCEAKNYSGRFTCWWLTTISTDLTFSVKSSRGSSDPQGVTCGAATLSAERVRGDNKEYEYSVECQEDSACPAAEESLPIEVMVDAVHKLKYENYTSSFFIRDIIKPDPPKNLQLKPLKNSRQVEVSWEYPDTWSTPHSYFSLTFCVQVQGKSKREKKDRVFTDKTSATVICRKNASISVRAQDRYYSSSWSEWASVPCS


Experiments:
Assay in all cases: cell-based or functional assay
human IL-12 = biological target: T1, human IL-12
[1] = biological target: T2, natural human IL-23 from activated …
recombinant human IL-23 [2] = biological target: T3, recombinant human IL-23
recombinant human IL-23 [3] = biological target: T3, recombinant human IL-23; remark: listed apart in the source

Binder | Average pg/ml IFN-γ +/- Standard Deviation, human PHA-derived T cell blasts with 1 ng/ml IL-12 (no antibody: 532 +/- 51; unstimulated: 87 +/- 7) (human IL-12) | IC50, inhibition of IL-17 production from IL-23 stimulated mouse splenocytes [1] | IC50, inhibition of IL-17 production from IL-23 stimulated mouse splenocytes (recombinant human IL-23 [2]) | IC50, inhibition of IL-23 induced STAT3 phosphorylation in human DB cells (recombinant human IL-23 [3])
Antibody A (antibody, human IgG1, kappa, L234A L235A, V domains shown) VH: QVQLVQSGAEVKKPGSSVKVSCKASGYTFTDQTIHWMRQAPGQGLEWIGYIYPRDDSPKYNENFKGKVTITADKSTSTAYMELSSLRSEDTAVYYCAIPDRSGYAWFIYWGQGTLVTVSS VL: DIQMTQSPSSLSASVGDRVTITCKASRDVAIAVAWYQQKPGKVPKLLIYWASTRHTGVPSRFSGSGSRTDFTLTISSLQPEDVADYFCHQYSSYPFTFGSGTKLEIKR | 497 pg/mL | 1 pM | 5 pM and 15 pM | 
Antibody B (antibody, human IgG1, kappa, L234A L235A, V domains shown) VH: QVQLVQSGAEVKKPGSSVKVSCKASGFTFTDQTIHWVRQAPGQGLEWMGYIYPRDDSPKYNENFKGKVTLTADKSTSTAYMELSSLRSEDTAVYYCAIPDRSGYAWFIYWGQGTLVTVSS VL: DIQMTQSPSSLSASVGDRVTITCKASRDVAIAVAWYQQKPGKVPKLLIYWASTRHTGVPSRFSGSGSRTDFTLTISSLQPEDVADYFCHQYSSYPFTFGSGTKLEIKR | 537 pg/mL | 9 pM and 8 pM |  | 73 pM and 84 pM
Antibody C (antibody, human IgG1, kappa, L234A L235A, V domains shown) VH: QVQLVQSGAEVKKPGSSVKVSCKASGYTFTDQTIHWMRQAPGQGLEWIGYIYPRDDSPKYNENFKGKVTITADKSTSTAYMELSSLRSEDTAVYYCAIPDRSGYAWFIYWGQGTLVTVSS VL: DIQMTQSPSSLSASVGDRVTITCKASRDVAIAVAWYQQKPGKVPKLLLFWASTRHTGVPDRFSGSGSGTDFTLTISSLQPEDLADYYCHQYSSYPFTFGQGTKLEIKR | 495 pg/mL | 16 pM and 32 pM |  | 132 pM and 80 pM
34D9 (antibody, V domains shown) VH: EVQLQQSGPELVKPGASVKIPCKASGYTFTDYNMDWVKKSHGKSLEWIGDINPHNGGTIYNQKFKGKATLTVDKSSSTAHMELRSLTSEDTAVYYCARNYYGSSYGWYFDVWGTGTTVTVSS VL: DIMMTQSHKFMSTSVGDRVSITCKASQDVGNAVVWYQQKPGQSPKLLIYWASTRHIGVPDRFTGSGSGTDFTLTITNVQSEDLADYFCQQYSSYLTFGAGTKLELK |  | 456 pM | 510 pM | 

Results, then the binder that gave them:

Average pg/ml IFN-γ +/- Standard Deviation, human PHA-derived T cell blasts with 1 ng/ml IL-12 (no antibody: 532 +/- 51; unstimulated: 87 +/- 7) (human IL-12) | IC50, inhibition of IL-17 production from IL-23 stimulated mouse splenocytes [1] | IC50, inhibition of IL-17 production from IL-23 stimulated mouse splenocytes (recombinant human IL-23 [2]) | IC50, inhibition of IL-23 induced STAT3 phosphorylation in human DB cells (recombinant human IL-23 [3]) | Binder
523 pg/mL | 5 pM and 2 pM and 6 pM and 3 pM | 26 pM and 37 pM and 57 pM |  | Chimeric 6B8 (antibody, IgG1, V domains shown) VH: QVQLQQSDAELVKPGTSVKTSCKISGNTFTDQTIHWMKQRPEQGLEWIGYIYPRDDSPKYNENFKGKATLTADKSSSTAYMQLNSLTSEDSAVYFCAIPDRSGYAWFIYWGQGTLVTVSS VL: DIVMTQSHKFLSTSVGDRVTITCKASRDVAIAVAWYQQKPGQSPKLLLFWASTRHTGVPDRFTGSGSRTDFTLTISNVQSEDLADYFCHQYSSYPFTFGSGTKLEIK
511 pg/mL |  | 31 pM |  | Chimeric 18E5 (antibody, V domains shown) VH: EVQLQQSGPELVKPGAAVKMSCKASGYTFTRYLIHWVKQKPGQGLEWIGYINPYNDGTKYNEKFKGKATLTSDKSSSTAYMELSSLTSEDSAVYYCTSNWDLDYWGQGTTLTVSS VL: DIVMTQSPATLSVTPGDRVSLSCRASQSISDYLYWYQQKSHESPRLLIKFASQSISGIPSRFTGSGSGSDFTLSIDSVEPDDVGVFFCQNGHSFPFTFGGGTKLEIK
 | 95 pM and 102 pM | 404 pM |  | Chimeric 24A5 (antibody, V domains shown) VH: EVQLQQSGPELVKPGASVKMSCKASGYTFTTSIMHWVKQKPGQGLEWIGYINPYDDVTKYNEKFKGKATLTSDKSSSTAYMELSSLTSEDSAVYYCVRRWDEAYWGQGTLVTVSA VL: DIVMTQSPATLSVTPGNRVSLSCRASQSISDYLHWYQQKSHESPRLLIKYASQSISGIPSRFSGSGSGSNFTLSINSVEPEDVGVYYCQNGHSFPFTFGSGTKLEIK
